According to patent publication US11325966:

Experiments:
Assay in all cases: cell-based or functional assay
92BR020 R327A (HIV-1) = biological target: 92BR020 R327A (HIV-1)
92BR020 D325A (HIV-1) = biological target: 92BR020 D325A (HIV-1)
[1] = biological target: BG505 (T332N) N295A (HIV-1)
92BR020 Q328A (HIV-1) = biological target: 92BR020 Q328A (HIV-1)
[2] = biological target: BG505 (T332N) N137A (HIV-1)
JR-CSF R327A (HIV-1) = JR-CSF R327A (HIV-1) (UniProt P20871)
[3] = biological target: BG505 (T332N) N156A (HIV-1)
92BR020 H33OA (HIV-1) = biological target: 92BR020 H33OA (HIV-1)
JR-CSF N295A (HIV-1) = JR-CSF N295A (HIV-1) (UniProt P20871)
[4] = biological target: BG505 (T332N) N301A (HIV-1)
JR-CSF I326A (HIV-1) = JR-CSF I326A (HIV-1) (UniProt P20871)
[5] = biological target: 92BR020 N156A + N332A (HIV-1)
JR-CSF (HIV-1) = JR-CSF (HIV-1) (UniProt P20871)
JR-CSF N301A (HIV-1) = JR-CSF N301A (HIV-1) (UniProt P20871)
[6] = biological target: 92BR020 N136A + N156A + N301A (HIV-1)
92BR020 N332A (HIV-1) = biological target: 92BR020 N332A (HIV-1)
92BR020 N136A (HIV-1) = biological target: 92BR020 N136A (HIV-1)
JR-CSF N392A (HIV-1) = JR-CSF N392A (HIV-1) (UniProt P20871)
92BR020 N386A (HIV-1) = biological target: 92BR020 N386A (HIV-1)
BG505 (T332N) (HIV-1) = biological target: BG505 (T332N) (HIV-1)
JR-CSF N332A (HIV-1) = JR-CSF N332A (HIV-1) (UniProt P20871)
92BR020 N301A (HIV-1) = biological target: 92BR020 N301A (HIV-1)
92BR020 I326A (HIV-1) = biological target: 92BR020 I326A (HIV-1)
JR-CSF G324A (HIV-1) = JR-CSF G324A (HIV-1) (UniProt P20871)
JR-CSF N362A (HIV-1) = JR-CSF N362A (HIV-1) (UniProt P20871)
92BR020 N156A (HIV-1) = biological target: 92BR020 N156A (HIV-1)
JR-CSF N386A (HIV-1) = JR-CSF N386A (HIV-1) (UniProt P20871)
92BR020 (HIV-1) = biological target: 92BR020 (HIV-1)
92BR020 N392A (HIV-1) = biological target: 92BR020 N392A (HIV-1)
JR-CSF D325A (HIV-1) = JR-CSF D325A (HIV-1) (UniProt P20871)
[7] = biological target: 92BR020 N136A + N332A (HIV-1)
JR-CSF N339A (HIV-1) = JR-CSF N339A (HIV-1) (UniProt P20871)
[8] = biological target: 92BR020 N301A + N332A (HIV-1)
JR-CSF Q328A (HIV-1) = JR-CSF Q328A (HIV-1) (UniProt P20871)
JR-CSF H33OA (HIV-1) = JR-CSF H33OA (HIV-1) (UniProt P20871)
[9] = biological target: BG505 (T332N) N392A (HIV-1)
[10] = biological target: BG505 (T332N) N386A (HIV-1)
[11] = biological target: 118-virus panel (Env of HIV-1 pseudoviruses)

Molecule: control mAb 12A12 (antibody)
- IC50 in TZM-bl assay (92BR020 R327A (HIV-1)): 0.022 µg/mL
- IC50 in TZM-bl assay (92BR020 D325A (HIV-1)): 0.05 µg/mL
- IC50 in TZM-bl assay [1]: 0.044 µg/mL
- IC50 in TZM-bl assay (92BR020 Q328A (HIV-1)): 0.028 µg/mL
- IC50 in TZM-bl assay [2]: 0.027 µg/mL
- IC50 in TZM-bl assay (JR-CSF R327A (HIV-1)): 0.131 µg/mL
- IC50 in TZM-bl assay [3]: 0.024 µg/mL
- IC50 in TZM-bl assay (92BR020 H33OA (HIV-1)): 0.073 µg/mL
- IC50 in TZM-bl assay (JR-CSF N295A (HIV-1)): 0.203 µg/mL
- IC50 in TZM-bl assay [4]: 0.027 µg/mL
- IC50 in TZM-bl assay (JR-CSF I326A (HIV-1)): 0.278 µg/mL
- IC50 in TZM-bl assay [5]: 0.023 µg/mL
- IC50 in TZM-bl assay (JR-CSF (HIV-1)): 0.233 µg/mL
- IC50 in TZM-bl assay (JR-CSF N301A (HIV-1)): 0.01 µg/mL
- IC50 in TZM-bl assay [6]: 0.013 µg/mL
- IC50 in TZM-bl assay (92BR020 N332A (HIV-1)): 0.039 µg/mL
- IC50 in TZM-bl assay (92BR020 N136A (HIV-1)): 0.027 µg/mL
- IC50 in TZM-bl assay (JR-CSF N392A (HIV-1)): 0.23 µg/mL
- IC50 in TZM-bl assay (92BR020 N386A (HIV-1)): 0.055 µg/mL
- IC50 in TZM-bl assay (BG505 (T332N) (HIV-1)): 0.03 µg/mL
- IC50 in TZM-bl assay (JR-CSF N332A (HIV-1)): 0.24 µg/mL
- IC50 in TZM-bl assay (92BR020 N301A (HIV-1)): 0.011 µg/mL
- IC50 in TZM-bl assay (92BR020 I326A (HIV-1)): 0.011 µg/mL
- IC50 in TZM-bl assay (JR-CSF G324A (HIV-1)): 0.236 µg/mL
- IC50 in TZM-bl assay (JR-CSF N362A (HIV-1)): 0.267 µg/mL
- IC50 in TZM-bl assay (92BR020 N156A (HIV-1)): 0.035 µg/mL
- IC50 in TZM-bl assay (JR-CSF N386A (HIV-1)): 0.332 µg/mL
- IC50 in TZM-bl assay (92BR020 (HIV-1)): 0.05 µg/mL
- IC50 in TZM-bl assay (92BR020 N392A (HIV-1)): 0.105 µg/mL
- IC50 in TZM-bl assay (JR-CSF D325A (HIV-1)): 0.203 µg/mL
- IC50 in TZM-bl assay [7]: 0.025 µg/mL
- IC50 in TZM-bl assay (JR-CSF N339A (HIV-1)): 0.028 µg/mL
- IC50 in TZM-bl assay [8]: 0.007 µg/mL
- IC50 in TZM-bl assay (JR-CSF Q328A (HIV-1)): 0.038 µg/mL
- IC50 in TZM-bl assay (JR-CSF H33OA (HIV-1)): 0.288 µg/mL
- IC50 in TZM-bl assay [9]: 0.012 µg/mL
- IC50 in TZM-bl assay [10]: 0.03 µg/mL

Molecule: 354BG18 (antibody)
- IC50 in TZM-bl assay [5]: > 50 µg/mL
- IC50 in TZM-bl assay (92BR020 N332A (HIV-1)): > 50 µg/mL
- IC50 in TZM-bl assay (JR-CSF N392A (HIV-1)): 0.002 µg/mL
- IC50 in TZM-bl assay (92BR020 N386A (HIV-1)): 0.003 µg/mL
- IC50 in TZM-bl assay (JR-CSF N332A (HIV-1)): > 50 µg/mL
- IC50 in TZM-bl assay [7]: > 50 µg/mL
- IC50 in TZM-bl assay [8]: > 50 µg/mL

B1: BG1 IgG (antibody, V domains shown)
VH: AEQLVESGGGLVPPGRSLRLSCSASGFYFPDYAMAWVRQAPGQGLQWVGFMRGWAYGGSAQFAAFAVGKFAISRDDGRNVVYLDVKNPTFEDTGVYFCAREQRNKDYRYGQEGFGYSYGMDVWGRGTTVVVST
VL: DIHMTQSPVSLSASVGDRVTITCRASHFIANYVNWYQQKPGKAPTLLIFESSTLQRGVPSRFSAYGDGTEFTLSINTLQPEDFASYICQQSHSPPVTFGAGTRVDQK
- geometric mean IC50 in TZM-bl assay [11]: 0.67 µg/mL
